In series [1] the test system is postprandial plasma glucose (PPG). As to the kind of experiment: Postprandial plasma glucose after standardized breakfast, single s.c. dose, phase I crossover study. Format: in vivo, Japanese people with type 2 diabetes mellitus. Particulars: insulin glargine 5 U single s.c. dose; at 2 hours post-dose. The method, then:
This was a phase I, single‐centre, randomized, open‐label, placebo‐controlled, four‐sequence, four‐period, four‐treatment crossover, single‐dose study.
Inclusion and exclusion criteria are provided in Appendix S1. […] There was a washout period of 7 to 14 days between dose administrations.
The secondary endpoints are described in Appendix S1.
The PD analyses were performed using the evaluable PD population. PPG–AUC0–2h was analysed using a linear mixed‐effects model with treatment group, sequence and treatment period as fixed effects, patient‐within‐sequence as a random effect, and baseline value as a covariate. The least squares (LS) mean differences were calculated between iGlarLixi groups and placebo, between the two iGlarLixi groups, and between iGlarLixi 5 U/5 μg and insulin glargine. The corresponding 95% confidence intervals and P values were calculated within the linear mixed‐effect model framework. P values < 0.05 were taken to indicate statistical significance. No adjustment for multiplicity was performed. […]
Secondary endpoints for PD included maximum postprandial plasma glucose (PPG) (PPG-Cmax), time of PPG-Cmax (PPG-tmax) and PPG-AUC0-5. In addition, serum insulin, serum C-peptide, and plasma glucagon concentrations were analyzed as secondary endpoints, and appropriate PD parameters such as AUCs were evaluated as applicable. […]

Series [2] is described as follows: Safety: adverse events and hypoglycaemia. Format: in vivo, Japanese people with type 2 diabetes mellitus. As to conditions: n=20. On the procedure: Patient safety was monitored from adverse events (AEs) spontaneously reported by a patient or noted by an investigator, including hypoglycemic events. All AEs, regardless of seriousness or relationship to the study drug, were recorded in each patient’s records from the time the informed consent form was signed. Treatment emergent AEs (TEAEs) were defined as AEs that occurred or worsened or became serious during the treatment phase.
Evaluation of safety was based on the review of individual values and descriptive statistics. All safety analyses were performed in the safety population. Individual values were flagged for potentially clinically significant abnormalities (PCSAs) if appropriate.

In the case of insulin glargine, the “time of peak of mean plasma glucose concentration after breakfast start” value in series [1] was “approximately 1 hour”. The “Patients with any TEAE” value in series [2] (insulin glargine 5U single s.c. dose, up to 24 hours after injection) is listed as 0 n. Further, in series [2] (insulin glargine 5U), the “Patients with any TEAE leading to permanent treatment discontinuation” value is recorded as 0 n, the “Patients with any severe TEAE” value came to 0 n and the “Patients with any treatment emergent SAE” value was determined as 0 n.

For the origin of these results see publication PMC6771557 (Diabetes, Obesity & Metabolism, 2019).
